Data as given in the nanobody polyreactivity screen of Harvey et al. (2022).

Experiment: yeast display, Sf9 membrane polyspecificity reagent, FACS + sequencing; frameworks hold sequencing errors
How it was run: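 In a synthetic yeast display library (Saccharomyces cerevisiae BJ5465), nanobody expression was induced with galactose for 36–48 hours. FACS gates were set low and high (top ~1%) using anti-HA fluorescence for expression and streptavidin fluorescence for binding of the Sf9 membrane reagent. Each polyreactivity label is drawn from the gate of origin.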

Sequence | polyreactivity (PSR sort gate)
QVQLVESGGGLVQAGGSLRLSCAASGRNFGIYAMGWYRQAPGKERELVARITGGGSTNYADSVKGRFTISRDNAKNTVYLQMNSLKPEDTAVYYCAATVRRIVGNITRYDYWGQGTQVTVSS | low polyreactivity
QVQLVESGGGLVQAGGSLRLSCAASGRNFGRYAMGCYRQAPGKERELVAAITGRGASTYYADSVKGRFTISRDNAKHTVYLQMNSLKPEDTAVYYCNAFRGAQGTDAYDWGQGTQVPVSS | low polyreactivity
QVQLVESGGGLVQAGGSLRLSCAASGRNFGSNTMGWYRQAPGKERELVAAITGDDSTYADSVKGRFTISRDNAKNTVYLQMNSLKPEDTAVYYCAVVWVWDVWFLVYYWGQGTQVTVSS | low polyreactivity
QVQLVESGGGLVQAGGSLRLSCAASGRNFKQYAMGWYRQAPGKERELVAVITRGGGSTYYADSVKGRFTISRDNAKNTVYLQMNSLKPEDTAVYYCAARGTQAPPGRRTGGYNSWGQGTQVTVSS | high polyreactivity
QVQLVESGGGLVQAGGSLRLSCAASGRNFPDNTMGWYRHAPGKERELVATIAWIGASTYYADSEKGRFTISRDNAKNTVYLQMNSLKPEDTAVDYCAGTTSHRWYGFNSKYDFDYWGQGTQVTVSS | low polyreactivity
QVQLVESGGGLVQAGGSLRLSCAASGRNFQWYSMGWSRQAPGKEREFVAAIRYSGGSTYYADSVKGRFTISRDNAKNTVYLQMNSMKPEDTSVYYCNARTGFLARNKRFGYWGQGTQVSVSS | high polyreactivity
QVQLVESGGGLVQAGGSLRLSCAASGRNFRGNTMGWYRQAPGKERELVAAITRGGSTSYADSVKGRFTISRDNAKNTVILQMNSLKPEDTAVYYCATRTHGEGTRRVSWGQGTQVTVSS | low polyreactivity
QVQLVESGGGLVQAGGSLRLSCAASGRNFRLNAMGWYRQAPGKERDLVARITGSYGGSTYYADSVKGRFTISRDNAKNTVSLQMISLKPEDSAGYYCADDGTGSYKGYYWGLGTQVTVSS | high polyreactivity
QVQLVESGGGLVQAGGSLRLSCAASGRNFRYYAMGWYRQAPGKERELVAAITTGSSTYYADSVKGRFTISRDNAKNTVYLQMNSLKPEDTAVYYCNVFQGTRYGYWGQGTQVTVSS | low polyreactivity
QVQLVESGGGLVQAGGSLRLSCAASGRNFSRYALGWYRQAPGKERELVAAINNGGSTYYADSVKGRFTISRDNAMNTVYLQMNSLKPEDTALYYCAKLWWSNFKPVEYWGQGTQVTVSS | low polyreactivity
QVQLVESGGGLVQAGGSLRLSCAASGRNFSTYAMGWYRQAPWKERELVAAINKIGGSTYYADSVKGRFTISRDNAKNTVYLQMNILKPEDTAVYYCAADAPYYPVRRYYYWGQGTQVTVSS | low polyreactivity
QVQLVESGGGLVQAGGSLRLSCAASGRNFWYYAMGWYRQAPGKERELVAGITYGDGSTYYADSVKGRFTISRDNAKNTVYLQMNSLKPEDTAVYYCAVDLRSYWFRYGFDYWGQGTQVTVSS | low polyreactivity
QVQLVESGGGLVQAGGSLRLSCAASGRNFYYAMGWYRQEPGKERELVASITWSGGSTYYADSVKGRFTISRDNAKNTVYLQMNSLKPEDTAVYYCNADDLYTWYVEYNYWGQGTQVTVSS | low polyreactivity
QVQLVESGGGLVQAGGSLRLSCAASGRNFYYNAMGWYRQAPGKERELVASITGSGGSTYYADSVKGRFTISRDNAKNTVYLQMNSLKPEDTAVYYCAKREYLYPYYYVAKYDYWGQGTQVTVSS | low polyreactivity
QVQLVESGGGLVQAGGSLRLSCAASGRNFYYYAMGWYRQAPGKERELVAGISWSAGSTYYADSVKGRFTISRDNAKNTVYLQMNSLKPEDTAVYYCAARYWQSYRSQVTHSSTLDYWGQGTQVTVSS | low polyreactivity
QVQLVESGGGLVQAGGSLRLSCAASGRNLHYYSMGWYRQAPGKEWELVAAITWSGGSTYYADSVNGRFTISRDNAKNTVYLQMNSLKPVDTSVYYCAARGTDWGQGTQVTVSS | low polyreactivity
QVQLVESGGGLVQAGGSLRLSCAASGRNSSWNAMGWYRPAPGKERELVAAISVRGGSTYADSVKGRFTISRDNAKNTVSLQMNSLTPADTAVYYCAKTYYPYRLGEGQYEYDYWGQGTQVTVSS | low polyreactivity
QVQLVESGGGLVQAGGSLRLSCAASGRPFWQYAMGWKRQGPGKERELVAAITSSGGSTYDADSVKGRITISRDNAKNTVYLQMNCLKPEDTAVYYCADDTRYYRYYYWGQGTQVTVSS | high polyreactivity
QVQLVESGGGLVQAGGSLRLSCAASGRRFRWYVMGWYRQAPGKERELVARISSNVGSTYYADSVKGRFTISRDNAKNTVYLQMNSLKPEDTAVYYCAAGPPKYYYSNRYYWGQGTQVTVSS | high polyreactivity
QVQLVESGGGLVQAGGSLRLSCAASGRSFAPYAMGWSRQAPGKERELVAAISLSTTRTYYADSVKGRFTISRDNAKNTVYLQMNSLKPEDTAVYYCAAETFTGYFFLRHDYWGQGTQVTVSS | high polyreactivity
QVQLVESGGGLVQAGGSLRLSCAASGRSFKYNAMGWYRQAPGKERELVAAISISGGSTYYADSVKGRFTISRDNAKNTVYLQMNSLKPEDTAVYYCNDDTYYLSDYVTFDYWGQGTQVTVSS | low polyreactivity
QVQLVESGGGLVQAGGSLRLSCAASGRSFLYYAMGWYRQAPGKERELVAAIRRGSSTYYADSVKGRFTISRDNAKNTVYLQMNSLKPEDTAVYYCAARGRYRIGPGRYGKRYAYWGQGTQVTVSS | high polyreactivity

Sequence | polyreactivity (PSR sort gate)
QVQLVESGGGLVQAGGSLRLSCAASGRSFNPYAMGWYRQAPGKERELVAAITNSGGSTYYADSVKVRFTISRDTAMNTFYLQMNSLKPEDTAVYYCNARRYPRYYYWGQGTQVTGSS | high polyreactivity
QVQLVESGGGLVQAGGSLRLSCAASGRSFNYNTMGWYRQAPGKERELVAAINKGGTRTYYADSVKGRFTISRDNAKNTVYLQMNSLKPEDTAVYYCAARLYSYDYWGQGTQVTVSS | high polyreactivity
QVQLVESGGGLVQAGGSLRLSCAASGRSFRPYARGWYRQAPGKERELVAAISSSGGSTYYADSVKGRFTISRDNAKNTVYLQMNSLKPEDTAVYYCATYFARGYNSWGQGTQVTVSS | high polyreactivity
QVQLVESGGGLVQAGGSLRLSCAASGRSFRYNAMGWYRQAPGKARELVAAISSGGSTNYADSVKGRFTTTRDNAKNTVYLQMNSLKPEDTAVYYCNAVYVHRYPGWGYDYWGQGTQVTVSS | low polyreactivity
QVQLVESGGGLVQAGGSLRLSCAASGRSFVLNAMGWYRQAPGKDRELVAAISSGGSTNYADSVKWRFTISRDNAKNTDYLQMNSLKPEDTAVYYCAGQDVNEYSAYYYWGQGTQVTGSS | low polyreactivity
QVQLVESGGGLVQAGGSLRLSCAASGRSFVSYAMGWYRQAPGKERELVASITSSDGTNYADSVKGRFTISRDNEKNTVYLQMNSLKPEDTAVFYCNKDGFTTDRIGPTSDYWGQGTQVTVSS | low polyreactivity
QVQLVESGGGLVQAGGSLRLSCAASGRSIWYYTMGWYRQAPGKERQFFAAITTSGGSTTYADSVKGRYTISRDTAKNTVFLQRNSLKPEDSAVYYCAARVYHGKSKYDYWGQGSQVTVSS | high polyreactivity
QVQLVESGGGLVQAGGSLRLSCAASGRTCAAYAMGWYRQAPGKERELVAAISIGGSTNYADSVKGRFTISRDNAKNTVYLQLNSLKPEDTAVYYCAAGTWAVSKYLEWLEFYYWGQGTQVTVSS | high polyreactivity
QVQLVESGGGLVQAGGSLRLSCAASGRTCIDKAMGWYRQAPGKERELVAAITKGARTYYADSVKGRFTISRDNAKNTVYLQMISLKPEDTGVYYCASVSYTQSHAYWGTGYRYGYWGQGTQVTVSS | high polyreactivity
QVQLVESGGGLVQAGGSLRLSCAASGRTCVGNAMGWYRQAPGKERELVAAIRRGGDSTYYADSVKGRFTISRDNAKNTVYLQMNSLKPEDTAVSYCNAVSLQPYRGGFDYWGQGTQVTVSS | low polyreactivity
QVQLVESGGGLVQAGGSLRLSCAASGRTCWDYAMGWYRPAPGKERELVAAITWGGGSTYYADSVKGRFTISRDNAKNTVYLQMNSLKPEDTAVYYCAADTKGWGQGTQVTVSS | low polyreactivity
QVQLVESGGGLVQAGGSLRLSCAASGRTCYDNTMGWSRQAPGTEREFVADITGSGGSTHYADSVKGRFTISRDNAKNTVYLQLNSLKPEDTAVYYCAADYRYNRGITSNKDYDYWGQGTQVTVSS | low polyreactivity
QVQLVESGGGLVQAGGSLRLSCAASGRTCYNTMGWYRQSPGKERELVAAISRGGITNYADSVKGRFTISRDNAKNTVYLQMNSLKPADTAVYYCIAEPKRYYYYYKFDYWGQGTQVTVSS | high polyreactivity
QVQLVESGGGLVQAGGSLRLSCAASGRTFADYGMGWYRQAPGKERELVAAITSSGGSTYYADSVKGRFTISRDNAKNTVYLQMNSLKPEDTAVYYCAAQQSPSVDYWGQGTQVTVTS | low polyreactivity
QVQLVESGGGLVQAGGSLRLSCAASGRTFAFYTMGWYRQAPGKERELVAAITRTGSTSYADSVKGRFTISRDNAKNTVYLQMNSLKPEDTAVYYCATVGYPYTLWHQMDYWGQGTQVTVSS | low polyreactivity
QVQLVESGGGLVQAGGSLRLSCAASGRTFAGNAMGWYRQAPGKEREFVASITASGVNTYYADSVKGRFTISRDNAKNTVYLQMNSLKPEDTAVYYCNKRNRWTPFYTYEYWGQGTQVTVSS | low polyreactivity
QVQLVESGGGLVQAGGSLRLSCAASGRTFAGYAMGWYRHAPGKETELVAAITTSGGRTYYADSVKGRFTISRDYAKNTVYLQMNSLKPEDTAVYYCNVASKGRYARYAAEYGYWGQGTQVTVSS | high polyreactivity
QVQLVESGGGLVQAGGSLRLSCAASGRTFAINAMGGYRQAPGKERELVATIDRSGGSTYYADSVKGRFTISRDNAKNTVYLQMNRLKPEDTAVYYCAADYPVRSYDYWGQGTQVTVSS | low polyreactivity
QVQLVESGGGLVQAGGSLRLSCAASGRTFAINAMGWYRQAPGKERELVADITTDGSTYYADSVKGRFTISRDNAKNTVYLQMNSLKPEDTAVYYCATDSLDYFIRFKQFGYWGQGTQVTVSS | low polyreactivity
QVQLVESGGGLVQAGGSLRLSCAASGRTFAIYAMGWYRQAPGIEREFVAAISWSGGDTYYADSVKGRFTISRDNAKNTVYLQMNSLKPEDTAVYYCAARDNDYEGRDLQYELDYWGQGTHVTVSS | low polyreactivity
QVQLVESGGGLVQAGGSLRLSCAASGRTFAIYAMGWYRQAPGKEREFVAAISWSGCSTYADSVKGRFTISRDNAKNTVYLQMNSLKPEDTAVYYCAKTILYDCDYWGQGTQVTVSS | low polyreactivity
